Assay results from patent publication US6051698, “Vascular endothelial growth factor (VEGF) nucleic acid ligand complexes”.

B1: t22e (ssRNA)
RNA: GGUAGGAAGAAUUGGAAGCGCT
modifications: 2'-F pyrimidines, 2'-OH purines, 3'-3' dT cap [22 (3'-3' dT cap); 2'-F pyrimidines 3,12,13,19,21]
B2: t2 (ssRNA)
RNA: GGCGAACCGAUGGAAUUUUUGGACGCUCGCCT
modifications: 2'-F pyrimidines, 2'-OH purines, 3'-3' dT cap [32 (3'-3' dT cap); 2'-F pyrimidines 3,7,8,11,16,17,18,19,20,24,26,27,28,30,31]
B3: t22 (ssRNA)
RNA: GACGAUGCGGUAGGAAGAAUUGGAAGCGCT
modifications: 2'-F pyrimidines, 2'-OH purines, 3'-3' dT cap [30 (3'-3' dT cap); 2'-F pyrimidines 3,6,8,11,20,21,27,29]

Key:
VEGF165 [1] = biological target: T1, VEGF165 (Homo sapiens, UniProt P15692-4 P15692-4:27-191); assay: filter; 37 C; conditions: tags: R&D Systems, expressed in Sf21 insect cells, carrier-free; chain copies: 2
T1 sequence (P15692 other isoform, or with tags, fused parts or gaps): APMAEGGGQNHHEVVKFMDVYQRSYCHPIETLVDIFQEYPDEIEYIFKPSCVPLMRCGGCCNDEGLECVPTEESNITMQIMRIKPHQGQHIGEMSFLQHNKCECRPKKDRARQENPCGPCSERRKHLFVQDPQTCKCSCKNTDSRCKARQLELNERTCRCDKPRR
Method: Nucleic Acid Ligands radiolabeled during transcription by incorporation of α-[^32P]-labeled NTPs, or after synthesis using γ-[^32P]-ATP and T4 polynucleotide kinase, were incubated in low concentration (between 20 and 70 pM) with varying concentrations of VEGF or other growth factors at 37° C. for 15 minutes. Incubations were in TBS, PBS, or HEPES-buffered saline (HBS), pH 7.4, with or without the addition of supplemental divalent cations. Samples were passed through prewashed 0.45μ Type HA filters (Millipore) followed by a 5–10 ml wash with binding buffer. Filters were immersed in scintillant and counted to quantitate the amount of protein-bound RNA retained by each filter. The equilibrium dissociation constant (K_D) of Nucleic Acid Ligand binding to a specific protein was calculated from thc data points as described in Green et al. (1996) Biochem. 35: 14413–14424.

VEGF165 [2] = biological target: T1, VEGF165; assay: filter; EDTA, no divalents; Mg2+ does not rescue, Ca2+ fully restores; conditions: tags: R&D Systems, expressed in Sf21 insect cells, carrier-free; chain copies: 2

Binder	Kd (VEGF165 [1])	Kd (VEGF165 [2])
B1	0.2 nM	
B2	0.02 nM	
B3	0.07 nM	
CGGAAUCAGUGAAUGCUUAUACAUCCG (ssRNA, 2'-F pyrimidines, 2'-OMe purines except two 2'-OH purines) [t44OMe]		> 100 nM
GACGAUGCGGUAGGAAGAAUUGGAAGCGC (ssRNA, 2'-F pyrimidines, 2'-OMe purines except 2'-OH at A12, G22) [t22OMe (OH-12,22)]	0.09 nM	
